The text below walks through data of patent US20110135573A1, “METALLOPROTEINASE 9 AND METALLOPROTEINASE 2 BINDING PROTEINS” (DYAX CORP., priority 2009, published 2011).

For one series, the target named is T1, mouse MMP-2 (Mus musculus, UniProt P33434).
T1 construct: purchased R&D Systems 924-MP-010
Put plainly: Enzyme inhibition assay (single point inhibition, IC50/Ki,app), substrate M-2350. Type of series: biochemical. As to the method:
(§1) 343 unique sFabs from the anti-MMP-9/-2 M237-D02 affinity maturation campaign were discovered by phage display, produced in small scale (6 mL cultures in deep 24-well plates) and screened to select inhibitors with sub-nanomolar potency against the human enzymes and at least single-digit nanomolar potency toward the mouse orthologues. […] Isolates which appeared potent against both human and mouse MMP-2 were then subjected to IC50 analysis against hMMP-9. Sub-nanomolar inhibitors of hMMP-9 were further tested by IC50 analysis against mMMP-9 and h/m MMP-2, if sufficient small-scale sFab material was available. Thirteen potential h/m MMP-9/-2 sFab inhibitors were then produced in medium scale (250 mL cultures in flasks) and retested for h/m MMP-9 and h/m MMP-2 inhibition. Five potential lead candidates were reformatted as IgGs and retested in enzyme inhibition assays.
(§2) Human MMP-9 (Biomol #SE-244), mouse MMP-9 (R&D Systems #909-MM-010), human MMP-2 (Biomol #SE-237) and mouse MMP-2 (R&D Systems #924-MP-010) were tested at final concentrations of 1 nM, 0.25-0.4 nM, 2.5 nM and 0.2 nM, respectively. Target enzymes were incubated with inhibitor for two hours at 30° C. in reaction buffer (50 mM Tris-HCl pH 7.5, 150 mM NaCl, 5 mM CaCl2, 0.05% Brij-35) in a total volume of 90 μL using a white 96 well plate (Costar). Reactions contained 5 μL of small-scale sFab stock solution (average concentration of 500 nM) for single point inhibition analysis or a concentration series of sFab/IgG for IC50 Ki,app determinations. Commercially available anti-MMP-9 antibodies (Millipore mAb 13415 and R&D Systems polyclonal IgG #AB911) were tested by IC50 analyses using 100 nM and 500 nM as the highest inhibitor concentrations, respectively. An anti-MMP-2 antibody (R&D Systems polyclonal IgG #AF902) was similarly tested with 200 nM as the highest inhibitor concentration. Reactions were initiated by the addition of 10 μL of a 10× concentrated stock of substrate, Mca-Lys-Pro-Leu-Gly-Leu-Dap(Dnp)-Ala-Arg-NH2, (Bachem M-2350), at final concentration of 10 μM and monitored at 30° C. in a Molecular Devices' Gemini fluorescence plate reader. The excitation and emission wavelengths were set at 328 nm and 393 nm, respectively. Kinetic data were acquired by the increase in fluorescence, and initial rates for each condition were plotted against the total inhibitor concentration. Reactions were performed in duplicates and all data replicates were plotted in a single graph and fit to the following equation^1:
(§3) Where A=initial rate observed at each inhibitor concentration; Ao=initial rate observed in the absence of inhibitor; Ainh=initial rate observed for the enzyme inhibitor complex; Inh=concentration of inhibitor; E=total enzyme concentration (treated as a floated parameter); and Ki,app=apparent equilibrium inhibition constant.

A further series addresses T2, human MMP-2 (Homo sapiens, UniProt P08253).
T2 construct: purchased Biomol SE-237
The series is described as above. It is filed as biochemical. As to the method:
as §1, §2, §3

The target of another series is T3, Mouse MMP-9 (Mus musculus, UniProt P41245).
T3 construct: purchased R&D Systems 909-MM (909-MM-010)
T3 sequence (P41245 108-730): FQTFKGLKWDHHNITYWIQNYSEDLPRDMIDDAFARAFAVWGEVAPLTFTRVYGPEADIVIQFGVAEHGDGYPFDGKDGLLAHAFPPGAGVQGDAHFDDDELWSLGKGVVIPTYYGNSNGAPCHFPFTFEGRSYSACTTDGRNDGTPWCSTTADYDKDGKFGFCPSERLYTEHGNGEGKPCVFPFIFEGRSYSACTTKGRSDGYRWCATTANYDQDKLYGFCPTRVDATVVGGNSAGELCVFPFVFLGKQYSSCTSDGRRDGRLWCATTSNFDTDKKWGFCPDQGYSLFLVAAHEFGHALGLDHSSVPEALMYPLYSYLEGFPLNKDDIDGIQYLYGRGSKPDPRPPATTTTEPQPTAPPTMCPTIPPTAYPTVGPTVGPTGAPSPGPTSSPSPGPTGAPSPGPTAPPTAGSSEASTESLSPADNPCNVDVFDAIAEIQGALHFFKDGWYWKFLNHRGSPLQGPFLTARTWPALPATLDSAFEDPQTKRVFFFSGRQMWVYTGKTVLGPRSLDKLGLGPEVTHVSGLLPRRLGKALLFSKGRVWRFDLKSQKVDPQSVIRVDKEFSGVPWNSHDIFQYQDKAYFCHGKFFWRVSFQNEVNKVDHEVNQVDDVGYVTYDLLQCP
The description is as above. Type of series: biochemical. As for the experimental part:
as §1, §2, §3

For series [1], the target named is T4, Human MMP-9 catalytic domain (Homo sapiens, UniProt P14780).
T4 construct: Human MMP-9 catalytic domain (BIOMOL, SE-244); purchased BIOMOL SE-244
T4 sequence (P14780 107-444 limits assumed): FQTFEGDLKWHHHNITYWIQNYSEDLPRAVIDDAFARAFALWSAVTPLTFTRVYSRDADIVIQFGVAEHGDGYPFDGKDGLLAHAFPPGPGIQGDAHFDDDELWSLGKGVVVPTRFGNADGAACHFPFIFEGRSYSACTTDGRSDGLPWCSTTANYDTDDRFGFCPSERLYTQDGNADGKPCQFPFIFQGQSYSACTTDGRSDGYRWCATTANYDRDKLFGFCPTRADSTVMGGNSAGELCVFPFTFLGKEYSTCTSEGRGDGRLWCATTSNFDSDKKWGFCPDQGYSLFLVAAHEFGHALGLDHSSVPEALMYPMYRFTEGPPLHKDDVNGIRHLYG
The series is described as follows: Inhibition progress curves and kinetic analysis (kobs, kon, koff). It is filed as biochemical. The note with it: 25° C.; for kobs: substrate 9 μM. As for the experimental part: The kinetics of the interaction between M0237-D02 and the human MMP-9 were determined. The rates were determined using the following equation: […]
The second order rate constant for the association of the enzyme E and the inhibitor I (kon) and the first order rate constant for the dissociation of the complex EI (koff) can be calculated from inhibition progress curves obtained at different inhibitor concentrations.
Materials: • Substrate: Mca-KPLGL-Dap(Dnp)-AR-NH2 (M-2350) from BACHEM (521575). A 10 mM stock solution was prepared in DMSO. • Human MMP-9 catalytic domain (BIOMOL, SE-244). • M0237-D02 hIgG1: 2517-068. • All measurements were performed at 25° C. in TCNB: 50 mM Tris/HCl, 10 mM CaCl2, 150 mM NaC10.05% Brij 35, pH 7.5. • 96-well black plates from Perkin Elmer (6005270) • Spectramax M2e to measure fluorescence emission of the substrate upon hydrolysis (λexc=328 nm and λem=393 nm)
The enzyme (at a final concentration ranging from 1.5 to 12.3 nM), the substrate (9 μM final) and the M0237-D02 antibody were mixed, and the fluorescence was immediately recorded in order to follow the hydrolysis of the substrate. The observed inhibition rate (kobs) was obtained by analyzing the progress curves with a single exponential. The value for kon and koff were calculated from the plot of the kobs vs. the antibody concentration using the following equation: […]

In series [2] the test system is carrageenan-stimulated mouse air pouch. The series is described as follows: Carrageenan-stimulated mouse air pouch, inflammatory cell infiltration. Type of series: in vivo. The conditions noted are these: FIG. 2. The source says:
The purpose of the following experiments were to determine the effect of 539A-M0237-D02 on inflammation and specifically on inflammatory cell infiltration into the carrageenan-stimulated mouse air pouch and on the arthritic index in collagen-induced arthritis (CIA) mice.
For the carrageenan-stimulated mouse air pouch model, subcutaneous injection of air into the hind flank or back of mice produces an air pouch in a week, the interior surface of which contains both fibroblast-like and macrophage-like cells. Inflammatory stimulation of the pouch results in leukocyte recruitment to the pouch and release of mediators (cytokines) into the exudate. Preventing inflammatory cell infiltration into the air pouch may translate into preventing inflammation of the synovium in rheumatoid arthritis.
The effect of 539A-M0237-D02 on inflammatory cell infiltration was compared to inflammatory cell infiltration indomethacin and a control (PBS). In addition, inflammatory cell recruitment was compared to an unstimulated mouse.

The mark [3] stands for this setting: from plot of kobs vs. antibody concentration.

T1 sequence (P33434 110-662): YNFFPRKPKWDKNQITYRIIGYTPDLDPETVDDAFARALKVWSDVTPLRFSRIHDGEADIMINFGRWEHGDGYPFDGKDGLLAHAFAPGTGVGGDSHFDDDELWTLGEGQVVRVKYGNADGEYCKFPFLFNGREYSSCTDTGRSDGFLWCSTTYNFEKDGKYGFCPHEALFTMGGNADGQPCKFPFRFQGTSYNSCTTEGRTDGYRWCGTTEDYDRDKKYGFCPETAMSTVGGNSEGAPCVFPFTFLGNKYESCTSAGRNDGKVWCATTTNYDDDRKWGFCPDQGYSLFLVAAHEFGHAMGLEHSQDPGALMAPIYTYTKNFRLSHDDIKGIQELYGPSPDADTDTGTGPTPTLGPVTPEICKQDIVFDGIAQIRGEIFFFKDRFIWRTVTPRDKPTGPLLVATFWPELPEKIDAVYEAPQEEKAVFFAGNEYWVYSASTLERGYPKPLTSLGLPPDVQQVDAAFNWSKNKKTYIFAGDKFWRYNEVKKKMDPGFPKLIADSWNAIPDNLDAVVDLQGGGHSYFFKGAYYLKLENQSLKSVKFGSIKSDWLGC
T2 sequence (P08253 110-446 limits assumed): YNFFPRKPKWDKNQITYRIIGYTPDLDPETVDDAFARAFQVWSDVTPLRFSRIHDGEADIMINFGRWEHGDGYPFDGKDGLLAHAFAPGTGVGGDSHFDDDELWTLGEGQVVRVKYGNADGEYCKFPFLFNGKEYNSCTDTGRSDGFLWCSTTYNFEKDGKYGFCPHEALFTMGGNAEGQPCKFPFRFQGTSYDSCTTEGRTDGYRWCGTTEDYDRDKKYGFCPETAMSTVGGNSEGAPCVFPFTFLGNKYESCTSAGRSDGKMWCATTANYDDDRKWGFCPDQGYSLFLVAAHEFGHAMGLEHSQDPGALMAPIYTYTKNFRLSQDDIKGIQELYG

B1: M0237-D02: MMP-9/-2 dual reactive antibody inhibitor (parental); sFab and hIgG1 (antibody, V domains shown)
VH: EVQLLESGGGLVQPGGSLRLSCAASGFTFSQYPMWWVRQAPGKGLEWVSYIVPSGGRTYYADSVKGRFTISRDNSKNTLYLQMNSLRAEDTAVYYCAKDRAYGDYVGWNGFDYWGQGTLVTVSS
VL: DIQMTQSPATLSLSPGERATLSCRASQSISSFLAWYQQKPGQAPRLLIYDASYRATGIPARFSGSGSGTDFTLTISSLEPEDYAVYYCQQRGNWPITFGQGTRLEIK
As for B1, in the series with mouse MMP-2, the “affinity for mMMP-2 (in words)” value is “low affinity”. The same molecule gave a Ki with mouse MMP-2 (IgG, Table 12) of 76 nM. Besides, the “affinity for hMMP-2 (in words)” value in the series with human MMP-2 is listed as “high affinity”. The “affinity for mMMP-9 (in words)” value with Mouse MMP-9 is reported as “high affinity”. The kobs in series [1] (M0237-D02 concentration 14.4 nM) was 0.0013 s⁻¹. For the same molecule, the kobs in series [1] (M0237-D02 concentration 19.2 nM) was 0.0019 s⁻¹. The molecule further had a kobs in series [1] (M0237-D02 concentration 28.8 nM) of 0.0024 s⁻¹. Besides, the kobs in series [1] (M0237-D02 concentration 115.2 nM) was 0.0086 s⁻¹. In addition, in series [1] (setting [3]), the koff is given as ~4 10^−4 s^−1 and the kon was ~7 10^4 M^−1 s^−1. In addition, in series [2], the lymphocyte infiltration result is “significantly decreased”, the neutrophil infiltration result was “significantly decreased” and the “total white blood cell infiltration” value is listed as “significantly decreased”.
